# Target: human PD-L1 expressed on mammalian cells (human) (UniProt Q9NZQ7)
# Experiment: FACS on PDL1-Raji cells by the text; sheet title 'Cell-Based Binding Raji-PDL1 cells', y axis labelled IL2 (ng/ml); EC50 table under the plot, unit taken from the axis Concentration (nM)
# human PD-L1 expressed on mammalian cells (human), sequence (Q9NZQ7 19-290): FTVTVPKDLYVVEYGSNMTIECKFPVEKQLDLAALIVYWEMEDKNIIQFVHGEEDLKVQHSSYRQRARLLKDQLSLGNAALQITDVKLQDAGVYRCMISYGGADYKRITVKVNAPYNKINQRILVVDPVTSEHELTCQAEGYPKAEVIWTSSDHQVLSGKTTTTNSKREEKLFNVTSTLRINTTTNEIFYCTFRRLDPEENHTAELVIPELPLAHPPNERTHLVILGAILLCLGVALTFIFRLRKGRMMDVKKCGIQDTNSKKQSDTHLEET
substance,measurement,value
Tecentriq (atezolizumab) (antibody),EC50,0.89 nM
